According to paper PMC9279156, “A peroxisomal ubiquitin ligase complex forms a retrotranslocation channel” (Nature, 2022):

T1: T. thermophilus Pex12 (1–439) with an N-terminal SBP tag (Thermothelomyces thermophilus, UniProt G2Q5N0 1-439)
T1 construct: Pex12 of Thermothelomyces thermophilus, residues 1-439; codon-optimised synthetic gene; the SBP tag is followed by a HRV3C protease cleavage site; also called T.t; Pex12; source: P. pastoris SMD1168, co-expressed with Pex2 and Pex10, purified (streptavidin resin, gel filtration) in digitonin; not shown: SBP, N-terminal, kept
T1 sequence (looked up): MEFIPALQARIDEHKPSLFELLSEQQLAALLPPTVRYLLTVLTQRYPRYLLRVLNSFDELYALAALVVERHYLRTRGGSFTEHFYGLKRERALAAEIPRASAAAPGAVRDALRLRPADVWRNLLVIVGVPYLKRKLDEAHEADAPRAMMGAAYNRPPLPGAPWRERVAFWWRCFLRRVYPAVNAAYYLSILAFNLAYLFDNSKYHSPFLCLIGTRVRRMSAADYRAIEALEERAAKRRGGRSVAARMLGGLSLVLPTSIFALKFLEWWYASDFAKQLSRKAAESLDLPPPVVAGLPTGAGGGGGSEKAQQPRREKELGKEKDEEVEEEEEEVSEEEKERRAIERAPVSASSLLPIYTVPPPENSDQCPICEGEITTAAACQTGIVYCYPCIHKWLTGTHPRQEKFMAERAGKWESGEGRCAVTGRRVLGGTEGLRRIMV


Molecular target: T1, T. thermophilus Pex12 (1–439) with an …
Assay: pull-down + SEC; Pex2, Pex10 and SBP-Pex12 co-expressed in P. pastoris; membranes solubilised in 1% LMNG; captured on streptavidin resin through SBP-Pex12, eluted with biotin, gel filtration (Superose 6) in 25 mM HEPES pH 7.4, 150 mM NaCl, 0.05% digitonin; fractions by SDS-PAGE and Coomassie staining
Settings: partners not purified

Binder | stoichiometry N
T. thermophilus Pex2 (140–495) (domain or fragment, Thermothelomyces thermophilus, UniProt G2Q1C9 140-495, looked up, Pex2 of Thermothelomyces thermophilus, residues 140-495; codon-optimised synthetic gene; also called T.t; Pex2; source: P. pastoris SMD1168, co-expressed with Pex10 and Pex12, purified (streptavidin resin, gel filtration) in digitonin) SREGTRPAFRVGQVDAELLDEELVELLRGQVREALRYVGGGGGGGGGGGGGGVGSGVAQDWEAEISLALRAVLFKLTVWDHDATYGAALQNLKYTDARRDGPALAPPSRWQKALYGLVTVGGRYLWAKWEDWLLEQDDGFEGPSPRVKRLARWTSALSTLHASAALVSFLVFLLHGRYRTLLDRLLRMRLAPPTSQVSREVSFEYLNRQLVWHAFTEFLLFVLPLVGINRWRRWLARTWRRTKKIMTADADGGAGDKKGEYSFLPERTCAICYRDQNSASSETELLAAASGGVVGSAQTDITNPYEAIPCGCTYCFVCLATRIEREEGEGWPCLRCGELIKECKPWNGDVLEEPQV | 1
T. thermophilus Pex10 (1–454) (natural protein, Thermothelomyces thermophilus, UniProt G2Q0E2 1-454, looked up, Pex10 of Thermothelomyces thermophilus, residues 1-454; codon-optimised synthetic gene; also called T.t; Pex10; source: P. pastoris SMD1168, co-expressed with Pex2 and Pex12, purified (streptavidin resin, gel filtration) in digitonin) MATQPPPARPPPPLTSSPYPYAAAPDIIRAHQKDAYFQGVLANRLSDLHRRLRGARSAHAWAAETRTFAAALYLCLTTLLGNRTLGEEYCDLVQVEEAPSKLFASSSSKAADDHIYENGLGGGGDGGPLLPSLPRRAGYILTAIVLPHLASRALPSVRSAIRKRLQSRLATLSRRRQQTGTKSGSGRGGRGGGGGITEYRVLRYLLTHLTPLTSGAHFRAATLAVFYFTGAYYELSKWVWGLRYVFTTRAGRVVDDDHNRHHHSPQHGGGNGGRAGYEVLGVLLVVQMAVRAWLHVREQLSSGSVAGGGGEEEEDGEDGFRERTAFGPGTNVDVSLDEHAFTSNNELLGGGGGGGGSSSQRSLGEIGAMAHTPVLKAGRARYDLGTSDKVMGWIKGAQQRKCTLCLEELKDPAATQCGHVFCWACIGDWVREKPECPLCRREAMVQHILPLRAA | 1
